Measured values taken from patent publication US20130004490A1 (UNITED STATES OF AMERICA AS REPRESENTED BY THE SECRETARY …, published 2013).

Target: T1, mouse ICAM-1 expressed on activated mouse endothelial cells (mouse, UniProt P13597 28-537)
T1 construct: whole, on cells
Test: FITC-labeled γ3 carriers on activated endothelial cells, fluorescence microscopy, 1 h 37 C
Procedure: Binding of FITC-labeled γ3 carriers to activated HUVEC cells (bars) vs ICAM-1-negative 293 cells (dotted line) was quantified by fluorescence microscopy after 1 h incubation at 37° C., in the absence or presence of excess γ3, anti-ICAM, or γ3 scramble peptide. The γ3 carriers bound to native ICAM-1 expressed by both activated human and mouse endothelial cells, but not control 293 cells which are known to be voided of ICAM-1 expression (FIG. 5C).

T1 sequence (P13597 28-537): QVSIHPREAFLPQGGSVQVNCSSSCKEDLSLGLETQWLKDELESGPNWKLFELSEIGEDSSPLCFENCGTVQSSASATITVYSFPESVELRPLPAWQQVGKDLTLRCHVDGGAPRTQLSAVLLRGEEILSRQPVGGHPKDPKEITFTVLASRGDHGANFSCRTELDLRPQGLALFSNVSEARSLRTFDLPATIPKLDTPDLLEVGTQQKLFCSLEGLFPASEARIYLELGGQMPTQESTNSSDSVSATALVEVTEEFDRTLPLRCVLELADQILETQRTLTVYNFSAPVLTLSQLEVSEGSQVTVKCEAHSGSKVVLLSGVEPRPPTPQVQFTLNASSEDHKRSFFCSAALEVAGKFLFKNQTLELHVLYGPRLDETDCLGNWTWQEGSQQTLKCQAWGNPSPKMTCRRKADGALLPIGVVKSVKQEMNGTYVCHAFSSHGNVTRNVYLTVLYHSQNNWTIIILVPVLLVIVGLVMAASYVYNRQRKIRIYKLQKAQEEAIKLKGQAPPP

- binding result: binds
Binder: NNQKIVNLKEKVAQLEA (also called γ3 peptide; γ3 carriers) [ICAM-1 affinity peptide γ3, a 17-mer polypeptide derived from fibrinogen]
